# Reference: patent US20220242939A1 (BIOARCTIC, published 2022)
# Residue numbers refer to the chain shown, from its start. Non-standard residues stand in square brackets, D forms with d. No end group written: not given here. Ahx = NCCCCCC(=O)O
# T1: L198 N-terminal neo-epitope peptide LAGQPL-Acp-C (SEQ ID NO:52) conjugated to BSA (human, not fully specified (residue 8); printed as LAGQPL-Acp-C; also: C-terminal Cys conjugated to BSA carrier)
# T1 construct: BSA carrier; also called L198-BSA peptide
# T1 peptide: LAGQPL[Ahx]C
# T2: G200 N-terminal neo-epitope peptide GQPLQE-Acp-C (SEQ ID NO:50) conjugated to BSA (human, not fully specified (residue 8); printed as GQPLQE-Acp-C; also: C-terminal Cys conjugated to BSA carrier)
# T2 construct: also called G200-BSA peptide; G200-peptide
# T2 peptide: GQPLQE[Ahx]C
# B1: 12B1, monoclonal anti-L198 antibody (antibody, IgG2c, V domains shown)
# VH: EVKLEESGGGLVQPGGSMKLSCVASGITFSKYWMNWVRQCPEKGLEWVAQIRLRSDNYATHYAESVKGRFTISRDDSKSSVYLQMNTLRAEDTGIYYCTHHYYGSSGYVDVWGTGTTVTVSS
# VL: DIVMTQSQKFMSTSVGDRVSVTCKASQNVGTNVAWYQQKPGQCPKGMILSASQRYSGVPDRFTGSGFGTEFTLTISNVQSEDLAEYFCQQYNSYPYTFGGGTKLERK
# B2: 15H11, monoclonal anti-L198 antibody (antibody, IgG1, V domains shown)
# VH: B1 VH with S17A, K31N, R54K
# VL: B1 VL with T31N, Q38K, T74I, Q89H
# B3: 28F2, hybridoma monoclonal antibody (unpurified supernatant) (antibody, mouse IgG1, V domains shown)
# VH: QIQLVQSGPDLKKPGETVKISCKASGYTFTNYAMHWMKQAPGKALKWMGWINTYTGEPTFADDFKGRFAFSLETSASTAYLQINSLKNEDMATYFCAREGYYDRSHYFDYWGQGTTLTVSS
# VL: DVLMTQTPLSLPVSLGDQASISCRSSLSLVHGDGNTYLEWYLQKPGQSPKLLIYKVSNRFSGVPDRFSGSGSGTDFTLKISRVEAEDLGVYYCLQGSHIPFTFGSGTKLEIK
# B4: 4E6, hybridoma monoclonal antibody (unpurified supernatant) (antibody, V domains shown)
# VH: EVQLVESGGDLVKPGGSLKLSCAASGFTFSSYAMSWVRQSPEKRLEWVAEISGSGSRDHYTDSVTGRFTVSRDNAKNTLYLEMSSLRSEDTAIYYCARQLTGTDYYGTDYWGQGTSVTVSS
# VL: DVLMTQIPLSLPVSLGDQASISCRSSQSIVYSNGNTYLEWYLQRPGQSPKLLIYKVSNRFSGVPDRFSGSGSGTDFTLKISRVEAEDLGVYYCFQGSHLPYTFGGGTKLEIK
# B5: 17G4, hybridoma monoclonal antibody (unpurified supernatant) (antibody, mouse IgG1, V domains shown)
# VH: EVQLVESGGGLVKPGGSLKLSCSASGFTFSRYAMSWVRQSPEKRLEWVAEINSGGSYSFYSDTVTGRFTISRDNAKNTLFLEMSSLRSEDTAIYYCARQLTGTDYYGTDYWGQGTSVTVSS
# VL: B4 VL with I7T, L15H, I29L, V30L, R44K, L99V
# B6: 7B10, hybridoma monoclonal antibody (unpurified supernatant) (antibody, mouse IgG1, V domains shown)
# VH: AVQLVESGGGLVKPGRSLKLSCAASGFTFSSYAMSWVRQFPDKRLDWVAEISSGGGSTNYLDTVTGRFTISRDNAKNTLYLEMNSLRSEDTAMYYCARQLVGTDYYGTDYWGQGTSVTVSS
# VL: B4 VL with I7T, S28N, R44K, L99V
# notes: also called 7610
# B7: 23D5, hybridoma monoclonal antibody (unpurified supernatant) (antibody, mouse IgG1, V domains shown)
# VH: B5 VH with T101S
# VL: B4 VL with I7T, L15H, I29L, V30L, R44K, L99V
# B8: 7C7, hybridoma monoclonal antibody (unpurified supernatant) (antibody, mouse IgG2b, V domains shown)
# VH: EVQLVESGGGLVKPGGSLRLSCAASGFTFSSFAMSWVRQSPERRLEWVAEISRGGGYAFYSDTVTGRFTISRDNARNTLFLEMGSLRSEDTAMYYCSRQLTGTDYYAMDYWGQGTSVTVSS
# VL: B4 VL with M4L, I7T, P12F, S32T, R44K, H98Q, L99V, I111L
# Molecular target: T1, L198 N-terminal neo-epitope peptide …
# Assay: direct ELISA, L198-BSA peptide coated at 1 µg/ml
# Description: (§1) Selectivity evaluation of purified monoclonal antibodies by direct ELISA: The direct ELISA described below was used to evaluate the binding selectivity of the purified monoclonal antibodies produced in Example 14.
# (§2) The screening was performed according to standard ELISA protocols. Briefly, 1 μg/ml solutions of BSA-conjugated neo-epitope peptides and negative control peptide, and 0.1 μM recombinant C-terminal ApoE fragment and full-length ApoE (Abcam, cat. no. ab50243) were prepared by dilution in PBS. 50 μl/well were added to an ELISA half-area 96 well microtiter plate, and the plate was sealed with adhesive sealer and incubated over night at 4° C. After discarding the solution, the plates were blocked with 150 μl/well of protein-free blocking solution (Pierce) for 1 h at room temperature with shake (600-900 rpm). The plates were washed four times with washing buffer containing 0.28 mM NaH₂PO₄, 2.5 mM Na₂HPO₄, 150 mM NaCl, 0.1% TWEEN®-20 and 0.0075% Kathon CG. Purified monoclonal antibodies of interest were 3-fold serially diluted with a starting dilution at 3 μg/ml (mixed 1:2 with dilution buffer (PBS with 0.1% BSA and 0.05% TWEEN®-20)). An anti-ApoE C-terminal antibody was used as a reference antibody (ApoE E-8 mouse monoclonal, Santa Cruz Biotechnology, cat. no. sc-393302). 50 μl/well were added into the ELISA plates and incubated for 2 h at room temperature with shake (600-900 rpm). The plates were washed four times as described previously. […] After another wash (as described previously), 50 μl/well of K-Blue® aqueous substrate (Neogen) were added, and the reaction was stopped after 5-15 min with 50 μl/well of 0.5 M […]. The optical density at 450 nm was read using an ELISA reader (Tecan).
row,EC50,Binder
1,15.2 ng/mL,B1
2,3.2 ng/mL,B2

# Molecular target: T3, recombinant C-terminal ApoE fragment L198-HIS (ApoE-L198-H299-10xHIS) (human, UniProt P02649 216-317)
# T3 construct: also called L198-HIS fragment
# T3 sequence (P02649 other isoform, or with tags, fused parts or gaps limits assumed): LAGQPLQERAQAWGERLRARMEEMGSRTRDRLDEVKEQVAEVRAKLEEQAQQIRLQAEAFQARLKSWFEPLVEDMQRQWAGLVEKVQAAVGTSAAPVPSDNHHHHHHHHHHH
# Assay: direct ELISA, L198-HIS coated at 0.1 µM
# Description: as §1, §2
row,EC50,Binder
1,8.7 ng/mL,B1
2,3.6 ng/mL,B2

# Molecular target: T4, recombinant C-terminal ApoE fragment G200-HIS (ApoE-G200-H299-10xHIS) (human, UniProt P02649 218-317)
# T4 construct: also called G200-HIS fragment
# T4 sequence (P02649 other isoform, or with tags, fused parts or gaps limits assumed): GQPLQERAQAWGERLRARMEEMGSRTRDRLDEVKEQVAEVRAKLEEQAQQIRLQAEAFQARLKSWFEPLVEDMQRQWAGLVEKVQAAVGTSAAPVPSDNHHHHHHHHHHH
# Assay: direct ELISA, target coated at 1 ug/ml, supernatant in 3-fold dilutions from 1000 ng/ml, OD 450 nm
# Description: (§3) Selectivity evaluation by direct ELISA: The direct ELISA described below was used to evaluate the binding selectivity of generated monoclonal anti-ApoE antibodies with affinity for the N-terminal neo-epitope of C-terminal ApoE fragments starting at amino acid G200.
# (§4) The screening was performed according to standard ELISA protocols. Briefly, 1 μg/ml solutions of N-terminal neo-epitope peptide (SEQ ID NO:50) conjugated to BSA, the recombinant C-terminal ApoE fragment G200-HIS (SEQ ID NO:48) and recombinant full-length ApoE4 (SEQ ID NO:45; Abcam; cat. no. ab50243) were prepared by dilution in PBS. 50 μl/well were added to an ELISA half-area 96 well microtiter plate. Then, the plate was sealed with adhesive sealer and incubated over night at 4° C. The plates were blocked with 150 μl/well of protein-free blocking solution (Pierce) for 1 h at room temperature with shake (600-900 rpm). The plates were washed four times with washing buffer containing 0.28 mM NaH₂PO₄, 2.5 mM Na₂HPO₄, 150 mM NaCl, 0.1% TWEEN®-20 and 0.0075% Kathon CG. Antibodies of interest were serially diluted 3-fold with a starting dilution at 1 μg/ml (mixed 1:1 with dilution buffer: PBS with 0.1% BSA and 0.05% TWEEN®-20) and incubated for 2 h at room temperature. The plates were washed four times as before. […] After another wash (as above), 50 μl/well of K-Blue® aqueous substrate (Neogen) were added, and the reaction was stopped after 5-15 min with 50 μl/well of 0.5 M […]. The optical density at 450 nm was read using an ELISA reader (Tecan). The optical density was plotted against the antibody concentration to generate concentration-response curves (FIG. 14).
row,EC50 (read off the curve),Binder
1,~5 ng/mL,B3
2,~10 ng/mL,B4
3,~8 ng/mL,B5
4,~8 ng/mL,B6
5,~10 ng/mL,B7

# Molecular target: T5, recombinant full-length ApoE4 (aa 1-299; SEQ ID NO:45; Abcam cat. no. ab50243) (human, UniProt P02649 19-317)
# T5 construct: Bought protein; also called recombinant ApoE4 full-length protein
# T5 sequence (P02649 19-317 C130R limits assumed): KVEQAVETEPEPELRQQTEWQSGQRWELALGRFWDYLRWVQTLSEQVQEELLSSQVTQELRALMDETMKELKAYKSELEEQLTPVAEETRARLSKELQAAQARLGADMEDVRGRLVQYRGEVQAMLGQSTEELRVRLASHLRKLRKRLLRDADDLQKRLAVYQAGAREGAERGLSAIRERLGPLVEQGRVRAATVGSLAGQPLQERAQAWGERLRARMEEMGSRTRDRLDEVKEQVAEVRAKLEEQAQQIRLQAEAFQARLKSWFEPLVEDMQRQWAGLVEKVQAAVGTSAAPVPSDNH
# Assay: as above
# Description: as §3, §4
row,binding result,Binder
1,no binding (tested: 1000 ng/ml),B3
2,no binding (tested: 1000 ng/ml),B4
3,no binding (tested: 1000 ng/ml),B8
4,no binding (tested: 1000 ng/ml),B5
5,no binding (tested: 1000 ng/ml),B6
6,no binding (tested: 1000 ng/ml),B7

# Molecular target: T2, G200 N-terminal neo-epitope peptide …
# Assay: as above
# Description: as §3, §4
row,EC50 (read off the curve),Binder
1,~10 ng/mL,B4
2,~20 ng/mL,B6

# Molecular target: T6, full-length ApoE in human brain extract from Alzheimer's disease patients (human, UniProt P02649 19-317)
# T6 construct: mature; Endogenous protein on Western blot or in solution (IP); also called ApoE full-length protein
# T6 sequence (P02649 19-317): as the sequence (P02649 19-317 C130R limits assumed) above, with R112C counted along it
# Assay: Western blot of AD brain RIPA 2% SDS extract; hybridoma supernatant as primary antibody
# From the text: Selectivity evaluation and human target binding in Alzheimer's disease brain extracts by Western blot analysis: The Western blot analysis described below was used to evaluate selective binding of monoclonal antibodies with affinity for the N-terminal neo-epitope of ApoE fragments […], starting at G200, without binding to ApoE full-length protein, in human brain extracts from an Alzheimer's disease patient. Fresh frozen brain tissue from the Alzheimer's disease patient was homogenized in RIPA 2% SDS extraction buffer, followed by centrifugation at 16000×g for 1 h. The subsequent supernatant was subjected to standard protein concentration determination.
# RIPA 2% SDS brain extract containing 80 μg total protein was mixed with 2×Laemmli sample buffer, boiled for 5 min at 95° C. and loaded onto SDS-PAGE gels (Bolt™ 12% Bis-Tris Plus 10 well, Thermo Fisher, cat. no. NW00120BOX). Gels were run for 30-40 min at 180 V, after which proteins were transferred from the gels to nitrocellulose membranes using the Trans-Blot® Turbo™ system (Bio-Rad). Membranes were blocked in Odyssey® blocking buffer for 1 h and incubated over night at room temperature with hybridoma supernatant diluted 1:1 in Odyssey® blocking buffer with 0.1% TWEEN®-20. Membranes were washed and incubated for 1 h at room temperature with the detection antibody anti-mouse-800CW (LI-COR, cat. no. 925-32210) diluted 1:25000 in Odyssey® blocking buffer with 0.1% TWEEN®-20. Membranes were washed and images acquired using Odyssey® FC (LI-COR).
row,Binder,binding result
1,B3,no binding (tested: supernatant diluted 1:1 (text))
2,B4,no binding (tested: supernatant diluted 1:1 (text))
3,B8,no binding (tested: supernatant diluted 1:1 (text))
4,B5,no binding (tested: supernatant diluted 1:1 (text))
5,B6,no binding (tested: supernatant diluted 1:1 (text))
6,B7,no binding (tested: supernatant diluted 1:1 (text))
